This is an account of results in patent publication US20110206702A1 (Genentech, published 2011).

This test concerns the target T1, TAT419 polypeptide (human, UniProt P24530 27-442).
T1 construct: Full-length TAT419 on transfected cells (e.g. 293 cells) or on TAT419-expressing human melanoma cell lines; also called full-length TAT419 polypeptide; cell surface expressed TAT419 polypeptide
T1 sequence: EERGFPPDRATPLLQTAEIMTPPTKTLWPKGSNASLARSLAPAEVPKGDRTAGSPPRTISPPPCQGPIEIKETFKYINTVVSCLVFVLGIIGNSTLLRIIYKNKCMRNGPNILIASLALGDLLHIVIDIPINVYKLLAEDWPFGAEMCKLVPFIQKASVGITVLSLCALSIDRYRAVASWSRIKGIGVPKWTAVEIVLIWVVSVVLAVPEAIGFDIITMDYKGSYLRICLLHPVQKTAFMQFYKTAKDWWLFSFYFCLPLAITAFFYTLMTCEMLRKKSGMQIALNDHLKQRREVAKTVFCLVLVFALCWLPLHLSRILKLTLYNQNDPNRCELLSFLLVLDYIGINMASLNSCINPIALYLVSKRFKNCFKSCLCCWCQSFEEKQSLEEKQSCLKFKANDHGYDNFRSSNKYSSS
Nature of the test: Western blots, TAT419-derived peptide variants expressed in 293 cells. As to the method:
Binding analysis was also conducted to identify the approximate location of the epitopes. Several TAT419-derived peptide variants were expressed in 293 cells. Western blots were carried out using various of the murine anti-TAT419 monoclonal antibodies described herein.
(In western blotting, separated proteins are transferred to a membrane and probed.)

B1: humanized anti-TAT419 antibody hu5E9.v1 (antibody, human IgG1, kappa, V domains shown)
VH: EVQLVESGGGLVQPGGSLRLSCAASGYTFTSYWMQWVRQAPGKGLEWIGTIYPGDGDTSYAQKFKGRATLSTDKSKNTAYLQMNSLRAEDTAVYYCARWGYAYDIDNWGQGTLVTVSS
VL: DIQMTQSPSSLSASVGDRVTITCKSSQSLLDSDGKTYLNWLQQKPGKAPKRLIYLVSKLDSGVPSRFSGSGSGTDFTLTISSLQPEDFATYYCWQGTHFPYTFGQGTKVEIKR
As to B1, the binding result is “binds”.

B2: murine anti-TAT419 monoclonal antibody 5E9 (antibody, mouse IgG2a, kappa, V domains shown)
VH: QVQLLQSGAELARPGASVKLSCKASGYTFTSYWMQWVKQRPGQGLEWIGTIYPGDGDTSYAQKFKGKATLTTDKYSSTAYMQLSSLASEDSAVYYCARWGYAYDIDNWGQGTTVTVSS
VL: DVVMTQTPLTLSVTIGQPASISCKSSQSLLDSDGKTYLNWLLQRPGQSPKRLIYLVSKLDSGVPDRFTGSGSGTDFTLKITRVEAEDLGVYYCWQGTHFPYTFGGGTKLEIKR
notes: also called murine 5E9
B2: the binding result is “binds”.
